Here are results for two molecules from article doi:10.1101/2021.04.14.439868.

For one data set, the target named is T1, LuxR (Vibrio campbellii BB120, UniProt P21308 1-205).
T1 sequence: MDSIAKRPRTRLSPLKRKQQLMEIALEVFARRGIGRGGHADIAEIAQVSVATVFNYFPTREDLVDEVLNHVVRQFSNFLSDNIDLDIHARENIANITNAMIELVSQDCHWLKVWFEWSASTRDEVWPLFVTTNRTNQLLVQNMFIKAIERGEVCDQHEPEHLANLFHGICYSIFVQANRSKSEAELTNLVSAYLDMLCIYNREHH
As to the kind of experiment: EMSA.

The target in a further data set is T2, SmcR (Vibrio vulnificus ATCC 27562, UniProt Q9L8G8 1-205).
T2 sequence: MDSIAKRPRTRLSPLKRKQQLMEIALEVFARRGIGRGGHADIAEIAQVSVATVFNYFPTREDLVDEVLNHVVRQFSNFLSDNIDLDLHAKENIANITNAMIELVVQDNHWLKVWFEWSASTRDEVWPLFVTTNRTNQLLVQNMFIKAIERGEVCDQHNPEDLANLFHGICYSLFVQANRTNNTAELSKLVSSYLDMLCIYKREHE
As to the kind of experiment: EMSA. (In general: Mobility shift assays separate free from complexed probe on a gel.)

B1: luxC promoter site B (JDN54/JDN55) (dsDNA)
DNA 1: TTACTTATTTATAGTGTTACAAATAACATTA
DNA 2: TAATGTTATTTGTAACACTATAAATAAGTAA
Turning to B1, the binding result with LuxR is listed as “binds”.

B2: vvpE promoter (AB324/AB325) (dsDNA)
DNA 1: ATAAATCAAATTTGTAACTTTATTTCTGAGATGACTGTCCCATTTATCTTATTGATAAATCTGCGTAAAAAAGAAAAAGCACAATTTTATTACTAGTGTTT
DNA 2: AAACACTAGTAATAAAATTGTGCTTTTTCTTTTTTACGCAGATTTATCAATAAGATAAATGGGACAGTCATCTCAGAAATAAAGTTACAAATTTGATTTAT
For B2, in the data set with SmcR, the binding result is “binds”.
